Data taken from the supplement of paper PMC10567573.

B1: RHOBTB2 (parent)
chain: NQEITKAFHVRRTNRVKECLAKGT
B2: TNXB (parent)
chain: LLQRELMVPGTRHSAVLRDLRSGT

Variants of: B1
Assay: protein stability index of a GFP-peptide fusion (GPS, HEK-293T) (PSI 1-6); higher = more stable
Conditions: c terminus: a fixed tail appended
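Note: lentivirally expressed fusions sorted by FACS into six bins by GFP to DsRed ratio, PSI derived from sequencing read proportions per bin multiplied by bin number.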

Protein stability index of substitutions, site by site:
F8: D 4.67, L 3.77, K 4.15, I 4.37, V 4.46, M 4.77, A 4.6, W 2.94, S 4.87, H 4.73, T 4.5, C 4.96, Q 4.48, E 4.62
N14: L 3.09, H 3.43, I 3.58, F 2.15, A 4.05, S 2.48, T 2.95, R 2.97, M 2.54, P 3.38, Q 3.09, E 4.4, K 3.15, D 3.82
R11: A 4.09, P 4.36, Q 4.43, V 2.22, S 3.99, E 4.25, I 2.43, K 3.62, W 2.61, Y 2.94
K17: M 2.54, F 2.06, W 2.3, S 3.63, R 2.47, N 2.92, I 1.75, Q 2.55, G 2.74, E 3.04, T 3.15, V 2.26
E18: H 2.58, G 2.88, W 2.23, Y 2.67, M 2.75, R 2.74, S 2.59, Q 2.87, V 3.4, D 3.47, N 2.92
Q2: R 2.83, A 3.21, F 3.01, L 2.4, Y 3.31, N 3.42, K 3.78, H 3.53, D 4.2, E 4.05, I 2.6, P 3.4, C 3.16, T 3.74, W 2.69
R15: N 3.48, G 2.9, Y 2.86, T 3.87, C 3.27, A 3.66, F 2.84, Q 3.87, V 3.73, D 4.21, P 3.29
C19: A 3.42, Y 2.33, Q 3.35, I 2.5, G 3.41, N 3.27, E 3.45, P 3.11, R 2.9, K 3.46, F 2.77, S 2.81, V 3.08
T24: W 2.69, H 3.32, A 3.55, C 2.19, K 3.88, D 3.46, G 2.92, M 2.86, F 1.81, S 3.61, V 2.7, R 2.7
R12: N 3.92, W 2.38, Y 2.67, V 2.83, C 2.68, G 4.51, H 3.72, I 2.37, L 2.16, F 2.16, S 3.95, D 3.78, T 3.69
N1: K 3.49, W 2.45, V 3.07, E 4.01, A 4.01, M 2.66, G 2.88, H 2.86, F 2.07, Q 3.87, I 1.59
H9: A 2.45, G 4.27, T 3.31, F 2.55, N 4.24, D 4.12, I 3.08, L 2.77, W 2.5, V 2.4
V16: H 2.88, W 3.4, T 3.02, R 3.21, L 3.92, N 3.41, A 2.78, K 3.41, P 4.09, I 2.91, S 2.95, F 2.48
T5: H 4.29, I 4.04, Y 3.46, G 2.21, N 3.22, W 3, C 2.04, E 4.16, D 3.84, F 2.67
K6: P 4.09, F 2.97, I 1.51, S 2.77, Y 2.25, E 4.03, H 3.87, N 3.25, Q 3.18, V 2.1, W 2.34
K22: F 1.88, Q 3.28, H 3.03, M 2.73, W 2.06, V 2.3, D 3.64, T 3.74, S 3.86, L 2.61, N 3.18
I4: M 4.25, P 4.43, F 3.46, S 4.49, L 3.51, N 3.38, E 4.32, D 4.37, A 4.92, T 5.01, H 4.13
L20: Y 2.58, K 3.83, I 4.41, V 4.62, N 3.27, S 4.04, M 3.59, T 3.45, G 2.97, H 2.84, E 4.03, R 2.74, W 2.22
G23: F 2.07, N 3.02, R 2.82, Q 2.99, A 2.73, P 3.25, C 2.67, W 2.61, H 2.84, I 2.61, L 2.56, Y 2.26, E 3.64, T 2.66, S 3.11
E3: L 3.66, K 3.06, V 2.4, N 3.38, S 2.26, Q 2.22, D 2.63, C 2.31, H 2.47, F 2.04
A7: K 3.51, Y 2.29, D 3.82, P 4.3, R 3.76, V 1.02, L 2.85, C 2.94, Q 3.5, M 2.48, T 3.11, E 4.16
V10: H 4.46, Q 3.84, C 3.62, K 4.42, Y 3.78, N 3.92, D 4.25, L 3.08, P 4.01, E 4.71, T 4.3, I 3.25, F 3.39
A21: W 2.28, D 3.83, S 2.48, I 2.27, E 3.63, M 2.23, L 2.61, T 3.73, Y 2.83, K 3.15, P 3.38, V 2.8, F 2.85, H 2.35
T13: K 2.79, S 3.96, L 3.32, E 3.97, A 3.72, W 2.02, P 3.98, M 3.57, G 2.49, H 3.36, Q 3.93, I 2.1

Variants of: B2
Assay: as above
Conditions: c terminus: a fixed tail appended

Protein stability index, by site and new letter:
T24: A 2.7, Y 2.64, D 2.5, W 1.84, K 2.03, V 2.29, E 1.83, I 1.72, H 2.13, R 2.88, M 2.29, F 2.13, N 2.37, C 1.77, Q 2.49, S 2.2, G 3.51, L 2, P 2.54
G23: A 2.31, T 2.43, E 3.05, S 2.94, C 2.36, N 2.58, V 2.13, D 3.38, R 2.72, Y 2.14, K 2.92, P 2.14, L 1.81, H 2.31, F 2.82, Q 3.73, W 2.09, M 2.22, I 2.35
S22: Y 2.18, T 2.39, V 1.82, R 2.78, Q 3.04, W 1.71
